Results published in patent US20170306033A1 (Amgen, published 2017).

T1: human PAC1 receptor (human, UniProt P41586 21-468)
T1 sequence: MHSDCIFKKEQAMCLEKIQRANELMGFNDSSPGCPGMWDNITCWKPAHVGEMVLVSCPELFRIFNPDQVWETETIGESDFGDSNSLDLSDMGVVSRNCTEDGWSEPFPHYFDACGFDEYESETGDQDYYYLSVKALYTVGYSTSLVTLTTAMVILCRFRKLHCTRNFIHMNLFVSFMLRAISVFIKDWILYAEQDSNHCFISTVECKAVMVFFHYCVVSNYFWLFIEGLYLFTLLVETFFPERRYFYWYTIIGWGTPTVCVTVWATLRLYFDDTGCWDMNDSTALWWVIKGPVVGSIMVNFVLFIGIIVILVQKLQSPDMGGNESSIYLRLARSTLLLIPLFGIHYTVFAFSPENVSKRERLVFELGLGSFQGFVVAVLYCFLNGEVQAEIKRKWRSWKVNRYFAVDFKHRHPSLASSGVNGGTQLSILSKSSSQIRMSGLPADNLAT


How the values were obtained:
[1] = molecular target: T1, human PAC1 receptor; experiment: cell-based or functional assay
[2] = molecular target: human CGRP receptor (human, UniProt Q16602 23-461; O60894 27-148); experiment: cell-based or functional assay
Chain of human CGRP receptor (Q16602 23-461 limits assumed, chain 1 of 2): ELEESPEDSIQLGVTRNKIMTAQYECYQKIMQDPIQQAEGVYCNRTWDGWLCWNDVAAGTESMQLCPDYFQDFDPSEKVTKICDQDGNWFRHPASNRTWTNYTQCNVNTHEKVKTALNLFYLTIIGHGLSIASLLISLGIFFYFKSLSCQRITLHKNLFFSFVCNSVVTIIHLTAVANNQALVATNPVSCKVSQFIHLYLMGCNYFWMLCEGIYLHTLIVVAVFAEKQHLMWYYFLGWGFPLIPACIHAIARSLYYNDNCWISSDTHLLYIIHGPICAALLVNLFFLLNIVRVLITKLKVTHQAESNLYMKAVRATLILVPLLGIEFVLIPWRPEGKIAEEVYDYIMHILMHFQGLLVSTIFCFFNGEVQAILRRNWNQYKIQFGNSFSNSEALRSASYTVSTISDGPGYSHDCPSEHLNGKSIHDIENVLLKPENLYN
Chain of human CGRP receptor (O60894 27-148 limits assumed, chain 2 of 2): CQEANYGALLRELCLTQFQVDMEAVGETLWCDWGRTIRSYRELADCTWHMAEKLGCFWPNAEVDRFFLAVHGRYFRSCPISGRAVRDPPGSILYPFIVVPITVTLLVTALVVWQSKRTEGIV

Row | % inhibition of human PAC1 [1] [%] | % inhibition of human CGRPR [2] [%] | Binder
1 | 11 | 77 | iPS:327876 (bispecific antibody, human IgG1, kappa, N297G) light 1: DIQMTQSPSSLSASVGDRITITCRASQSISRYLNWYQQKPGKAPKLLIYAASSLQSGIPSRFSGSGSGTDFTLTINSLQPEDFATYFCQQSYSPPFTFGQGTKVDIKRTVAAPSVFIFPPSDEQLKSGTASVVCLLNNFYPREAKVQWKVDNALQSGNSQESVTEQDSKDSTYSLESTLTLSKADYEKHKVYACEVTHQGLSSPVTKSFNRGEC heavy 1: not shown light 2: EIVLTQSPGTLSLSPGERATLSCRASQSVSSGYLTWYQQKPGQAPRLLIYGASSRATGIPDRFSGSGSGTDFTLTISRLEPEDFAVYYCQQYGNSLSRFGQGTKLEIKRTVAAPSVFIFPPSDEQLKSGTASVVCLLNNFYPREAKVQWKVDNALQSGNSQESVTEQDSKDSTYSLKSTLTLSKADYEKHKVYACEVTHQGLSSPVTKSFNRGEC heavy 2: not shown
2 | 22 | 72 | iPS:327877 (bispecific antibody, human IgG1, kappa, N297G) light 1: not shown heavy 1: not shown light 2: EIVLTQSPGTLSLSPGERATLSCRASQSVSSGYLTWYQQKPGQAPRLLIYGASSRATGIPDRFSGSGSGTDFTLTISRLEPEDFAVYYCQQYGNSLSRFGQGTKLEIKRTVAAPSVFIFPPSDEQLKSGTASVVCLLNNFYPREAKVQWKVDNALQSGNSQESVTEQDSKDSTYSLKSTLTLSKADYEKHKVYACEVTHQGLSSPVTKSFNRGEC heavy 2: not shown
3 | 58 | 74 | iPS:327740 (bispecific antibody, human IgG1, kappa, lambda, N297G) light 1: not shown heavy 1: not shown light 2: QSVLTQPPSVSAAPGQKVTISCSGSSSNIGNNYVSWYQQLPGTAPKLLIYDNNKRPSGIPDRFSGSKSGTSATLGITGLQTGDEADYYCGTWDSRLSAVVFGGGTKLTVLGQPKANPTVTLFPPSSEELQANKATLVCLISDFYPGAVTVAWKADGSPVKAGVETTKPSKQSNNKYAAKSYLSLTPEQWKSHRSYSCQVTHEGSTVEKTVAPTECS heavy 2: QVQLVESGGGVVQPGRSLRLSCAASGFTFSSFGMHWVRQAPGKGLEWVAVISFDGSIKYSVDSVKGRFTISRDNSKNTLFLQMNSLRAEDTAVYYCARDRLNYYESSGYYHYKYYGMAVWGQGTTVTVSSASTKGPSVFPLAPSSKSTSGGTAALGCLVKDYFPEPVTVSWNSGALTSGVHTFPAVLQSSGLYSLESVVTVPSSSLGTQTYICNVNHKPSNTKVDKKVEPKSCDKTHTCPPCPAPELLGGPSVFLFPPKPKDTLMISRTPEVTCVVVDVSHEDPEVKFNWYVDGVEVHNAKTKPCEEQYGSTYRCVSVLTVLHQDWLNGKEYKCKVSNKALPAPIEKTISKAKGQPREPQVYTLPPSRKKMTKNQVSLTCLVKGFYPSDIAVEWESNGQPENNYKTTPPVLKSDGSFFLYSKLTVDKSRWQQGNVFSCSVMHEALHNHYTQKSLSLSPGK
4 | 42 | 75 | iPS:327878 (bispecific antibody, human IgG1, kappa, lambda, N297G) light 1: DIQMTQSPSSLSASVGDRITITCRASQSISRYLNWYQQKPGKAPKLLIYAASSLQSGIPSRFSGSGSGTDFTLTINSLQPEDFATYFCQQSYSPPFTFGQGTKVDIKRTVAAPSVFIFPPSDEQLKSGTASVVCLLNNFYPREAKVQWKVDNALQSGNSQESVTEQDSKDSTYSLESTLTLSKADYEKHKVYACEVTHQGLSSPVTKSFNRGEC heavy 1: not shown light 2: QSVLTQPPSVSAAPGQKVTISCSGSSSNIGNNYVSWYQQLPGTAPKLLIYDNNKRPSGIPDRFSGSKSGTSTTLGITGLQTGDEADYYCGTWDSRLSAVVFGGGTKLTVLGQPKANPTVTLFPPSSEELQANKATLVCLISDFYPGAVTVAWKADGSPVKAGVETTKPSKQSNNKYAAKSYLSLTPEQWKSHRSYSCQVTHEGSTVEKTVAPTECS heavy 2: QVQLVESGGGVVQPGRSLRLSCAASGFTFSSFGMHWVRQAPGKGLEWVAVISFDGSIKYSVDSVKGRFTISRDNSKNTLFLQMNSLRAEDTAVYYCARDRLNYYESSGYYHYKYYGMAVWGQGTTVTVSSASTKGPSVFPLAPSSKSTSGGTAALGCLVKDYFPEPVTVSWNSGALTSGVHTFPAVLQSSGLYSLESVVTVPSSSLGTQTYICNVNHKPSNTKVDKKVEPKSCDKTHTCPPCPAPELLGGPSVFLFPPKPKDTLMISRTPEVTCVVVDVSHEDPEVKFNWYVDGVEVHNAKTKPCEEQYGSTYRCVSVLTVLHQDWLNGKEYKCKVSNKALPAPIEKTISKAKGQPREPQVYTLPPSRKEMTKNQVSLTCLVKGFYPSDIAVEWESNGQPENNYKTTPPVLKSDGSFFLYSKLTVDKSRWQQGNVFSCSVMHEALHNHYTQKSLSLSPGK
5 | 68 | 65 | iPS:327871 (bispecific antibody, human IgG2, kappa, lambda) light 1: DIQLTQSPSFLSASVGDRVTITCRASQSIGRSLHWYQQKPGKAPKLLIKYASQSLSGVPSRFSGSGSGTEFTLTISSLQPEDFATYYCHQSSRLPFTFGPGTKVDIKRTVAAPSVFIFPPSDEQLKSGTASVVCLLNNFYPREAKVQWKVDNALQSGNSQESVTEQDSKDSTYSLESTLTLSKADYEKHKVYACEVTHQGLSSPVTKSFNRGEC heavy 1: QVQLVESGAEVVKPGASVKVSCKASGFTFSRFAMHWVRQAPGQGLEWMGVISYDGGNKYYAESVKGRVTMTRDTSTSTLYMELSSLRSEDTAVYYCARGYDVLTGYPDYWGQGTLVTVSSASTKGPSVFPLAPCSRSTSESTAALGCLVKDYFPEPVTVSWNSGALTSGVHTFPAVLQSSGLYSLKSVVTVPSSNFGTQTYTCNVDHKPSNTKVDKTVERKCCVECPPCPAPPVAGPSVFLFPPKPKDTLMISRTPEVTCVVVDVSHEDPEVQFNWYVDGVEVHNAKTKPREEQFNSTFRVVSVLTVVHQDWLNGKEYKCKVSNKGLPAPIEKTISKTKGQPREPQVYTLPPSREEMTKNQVSLTCLVDGFYPSDIAVEWESNGQPENNYDTTPPMLDSDGSFFLYSDLTVDKSRWQQGNVFSCSVMHEALHNHYTQKSLSLSPGK light 2: QSVLTQPPSVSAAPGQKVTISCSGSSSNIGNNYVSWYQQLPGTAPKLLIYDNNKRPSGIPDRFSGSKSGTSTTLGITGLQTGDEADYYCGTWDSRLSAVVFGGGTKLTVLGQPKANPTVTLFPPSSEELQANKATLVCLISDFYPGAVTVAWKADGSPVKAGVETTKPSKQSNNKYAAKSYLSLTPEQWKSHRSYSCQVTHEGSTVEKTVAPTECS heavy 2: QVQLVESGGGVVQPGRSLRLSCAASGFTFSSFGMHWVRQAPGKGLEWVAVISFDGSIKYSVDSVKGRFTISRDNSKNTLFLQMNSLRAEDTAVYYCARDRLNYYDSSGYYHYKYYGMAVWGQGTTVTVSSASTKGPSVFPLAPCSRSTSESTAALGCLVKDYFPEPVTVSWNSGALTSGVHTFPAVLQSSGLYSLESVVTVPSSNFGTQTYTCNVDHKPSNTKVDKTVERKCCVECPPCPAPPVAGPSVFLFPPKPKDTLMISRTPEVTCVVVDVSHEDPEVQFNWYVDGVEVHNAKTKPREEQFNSTFRVVSVLTVVHQDWLNGKEYKCKVSNKGLPAPIEKTISKTKGQPREPQVYTLPPSRKKMTKNQVSLTCLVKGFYPSDIAVEWESNGQPENNYKTTPPMLKSDGSFFLYSKLTVDKSRWQQGNVFSCSVMHEALHNHYTQKSLSLSPGK
6 | 96 | 84 | iPS:327742 (bispecific antibody, human IgG1, kappa, lambda, N297G) light 1: EIVLTQSPATLSLSPGERATLSCRASQSVGRSLHWYQQKPGQAPRLLIKYASQSLSGIPARFSGSGSGTDFTLTISSLEPEDFAVYYCHQSSRLPFTFGPGTKVDIKRTVAAPSVFIFPPSDEQLKSGTASVVCLLNNFYPREAKVQWKVDNALQSGNSQESVTEQDSKDSTYSLESTLTLSKADYEKHKVYACEVTHQGLSSPVTKSFNRGEC heavy 1: not shown light 2: QSVLTQPPSVSAAPGQKVTISCSGSSSNIGNNYVSWYQQLPGTAPKLLIYDNNKRPSGIPDRFSGSKSGTSATLGITGLQTGDEADYYCGTWDSRLSAVVFGGGTKLTVLGQPKANPTVTLFPPSSEELQANKATLVCLISDFYPGAVTVAWKADGSPVKAGVETTKPSKQSNNKYAAKSYLSLTPEQWKSHRSYSCQVTHEGSTVEKTVAPTECS heavy 2: QVQLVESGGGVVQPGRSLRLSCAASGFTFSSFGMHWVRQAPGKGLEWVAVISFDGSIKYSVDSVKGRFTISRDNSKNTLFLQMNSLRAEDTAVYYCARDRLNYYESSGYYHYKYYGMAVWGQGTTVTVSSASTKGPSVFPLAPSSKSTSGGTAALGCLVKDYFPEPVTVSWNSGALTSGVHTFPAVLQSSGLYSLESVVTVPSSSLGTQTYICNVNHKPSNTKVDKKVEPKSCDKTHTCPPCPAPELLGGPSVFLFPPKPKDTLMISRTPEVTCVVVDVSHEDPEVKFNWYVDGVEVHNAKTKPCEEQYGSTYRCVSVLTVLHQDWLNGKEYKCKVSNKALPAPIEKTISKAKGQPREPQVYTLPPSRKKMTKNQVSLTCLVKGFYPSDIAVEWESNGQPENNYKTTPPVLKSDGSFFLYSKLTVDKSRWQQGNVFSCSVMHEALHNHYTQKSLSLSPGK
7 | 70 | 83 | iPS:327741 (bispecific antibody, human IgG1, kappa, lambda, N297G) light 1: DIQLTQSPSFLSASVGDRVTITCRASQSIGRSLHWYQQKPGKAPKLLIKYASQSLSGVPSRFSGSGSGTEFTLTISSLQPEDFATYYCHQSSRLPFTFGPGTKVDIKRTVAAPSVFIFPPSDEQLKSGTASVVCLLNNFYPREAKVQWKVDNALQSGNSQESVTEQDSKDSTYSLESTLTLSKADYEKHKVYACEVTHQGLSSPVTKSFNRGEC heavy 1: not shown light 2: QSVLTQPPSVSAAPGQKVTISCSGSSSNIGNNYVSWYQQLPGTAPKLLIYDNNKRPSGIPDRFSGSKSGTSATLGITGLQTGDEADYYCGTWDSRLSAVVFGGGTKLTVLGQPKANPTVTLFPPSSEELQANKATLVCLISDFYPGAVTVAWKADGSPVKAGVETTKPSKQSNNKYAAKSYLSLTPEQWKSHRSYSCQVTHEGSTVEKTVAPTECS heavy 2: QVQLVESGGGVVQPGRSLRLSCAASGFTFSSFGMHWVRQAPGKGLEWVAVISFDGSIKYSVDSVKGRFTISRDNSKNTLFLQMNSLRAEDTAVYYCARDRLNYYESSGYYHYKYYGMAVWGQGTTVTVSSASTKGPSVFPLAPSSKSTSGGTAALGCLVKDYFPEPVTVSWNSGALTSGVHTFPAVLQSSGLYSLESVVTVPSSSLGTQTYICNVNHKPSNTKVDKKVEPKSCDKTHTCPPCPAPELLGGPSVFLFPPKPKDTLMISRTPEVTCVVVDVSHEDPEVKFNWYVDGVEVHNAKTKPCEEQYGSTYRCVSVLTVLHQDWLNGKEYKCKVSNKALPAPIEKTISKAKGQPREPQVYTLPPSRKKMTKNQVSLTCLVKGFYPSDIAVEWESNGQPENNYKTTPPVLKSDGSFFLYSKLTVDKSRWQQGNVFSCSVMHEALHNHYTQKSLSLSPGK
